In patent publication US20230414735A1, “NEOANTIGENS AND METHODS OF THEIR USE” (priority 2016, published 2023):

Key:
[1] = molecular target: HLA-B08:01 (human); assay: competition with 125I probe peptide for purified HLA class I; conditions: remark: other sources report otherwise
[2] = molecular target: HLA-B08:01 (human); assay: pMHC-I dissociation, 125I-b2m; conditions: remark: other sources report otherwise
[3] = molecular target: HLA-B08:01 (human); assay: competition with 125I probe peptide on purified HLA

Row | Binder | IC50 [1] [nM] | Stability (T1/2 (h)) [2] [h] | IC50 [3] [nM]
1 | MNWRPILTI | 1 | 0 | 
2 | GMNWRPILTI |  | 0 | 
3 | MALNSEALSV |  | 0 | 
4 | CMGSMNRRPI | 80 |  | 

Other lines, results leading:

Row | IC50 [1] [nM] | Stability (T1/2 (h)) [2] [h] | IC50 [3] [nM] | Binder
5 |  | 0 |  | LPRKPTRAA
6 |  |  | 0.4 | SLRRKYLRV
7 | 20 |  |  | NQRPILTII
